According to paper PMC9022596, “Convergent Evolution of Antibiotic Tolerance in Patients with Persistent Methicillin-Resistant Staphylococcus aureus Bacteremia” (Infection and Immunity, 2022):

Key:
[1] = test system: O=C(O)CC(=O)C(=O)O; assay: purified protein; conditions: AcCoA fixed at 0.3 mM, 0.1 mM DTNB, 100 mM Tris-HCl pH 8.0, room temperature
[2] = test system: CC(=O)SCCNC(=O)CCNC(=O)[C@H](O)C(C)(C)COP(=O)(O)OP(=O)(O)OC[C@H]1O[C@@H](n2cnc3c(N)ncnc32)[C@H](O)[C@@H]1OP(=O)(O)O; assay: purified protein; conditions: OAA fixed at 0.5 mM, 0.1 mM DTNB, 100 mM Tris-HCl pH 8.0, room temperature

S. aureus citrate synthase (CS, citZ) (Staphylococcus aureus subsp. aureus USA300)
Km [1]: 0.03 (95% CI 0.02 to 0.04) mM
kcat [1]: 30 (95% CI 28 to 32) s-1
Km [2]: 0.29 (95% CI 0.25 to 0.32) mM
kcat [2]: 41 (95% CI 39 to 43) s-1
